In test [1] the target is T1, kappa opioid receptor (the kOR), mouse, with C-terminal GFP (the kOR-EGFP) (mouse), P33534.
T1 chain: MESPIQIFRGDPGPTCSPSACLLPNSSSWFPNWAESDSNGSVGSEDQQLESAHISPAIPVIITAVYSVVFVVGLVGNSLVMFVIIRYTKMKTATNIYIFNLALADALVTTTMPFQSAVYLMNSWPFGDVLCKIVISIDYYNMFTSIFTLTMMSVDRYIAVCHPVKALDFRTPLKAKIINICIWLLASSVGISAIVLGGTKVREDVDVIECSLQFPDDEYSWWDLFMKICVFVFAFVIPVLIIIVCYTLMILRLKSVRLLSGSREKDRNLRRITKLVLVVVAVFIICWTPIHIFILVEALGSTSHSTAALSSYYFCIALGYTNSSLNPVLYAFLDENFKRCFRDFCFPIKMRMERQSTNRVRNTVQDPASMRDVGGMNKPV
Kind of test: cell-based or functional assay.

The target in test [2] is T1, kappa opioid receptor (the kOR), mouse, ….

Ends that are not written are not given here.

B1: [T20K]-kalata B1 (peptide)
peptide: GLPVCGETCVGGTCNTPGCKCSWPVCTRN
modifications: not fully specified (bridges); ends and bridges not checked
One may read the Ki as the dissociation constant of the complex between target and ligand, obtained from inhibition or displacement. A low value points to higher affinity. Regarding B1, in test [1], the cAMP assay EC50 (HEK293 cells stably expressing the kOR) is 17 µM and the leftward shift in the cAMP potency of the orthosteric ligand U50,488 came to 9 fold. Also, the Ki in test [2] came out at 2.7 µM.
